{"source": "patent US20070141066A1", "about": "“Method for Diagnosing, Prognosing and Treating Glioma” (Genentech, Inc., priority 2005, published 2007)", "test_system": "neural stem cell lines derived from fetal human brain", "assay": "Expression signature (35 signature genes) of neural stem cell lines after BDNF treatment and withdrawal", "format": "cell-based", "details": "two neural stem cell lines", "protocol": "Signal intensity values from Microarray Analysis Suite version were utilized with a scaling factor of 500 for all analysis of microarray data. K-means clustering and agglomerative clustering were performed with the use of Spotfire Decision Site software version 7.3 using Pearson correlation as the similarity measure. For each gene, data was normalized into Z scores prior to clustering. The 35 signature genes used for tumor classification represent the most robust markers for each of three tumor subsets in the MDA survival sample set. Markers of each subset are identified as follows: Each of the 76 samples is assigned to one of three groups based on k-means clustering of expression of the 108 genes most strongly correlated with survival. Using a p value cutoff of 1×10^−4, t tests were utilized to identify all genes whose expression differed between samples in each subclass compared to tumors of other subclasses (see Table A, GDM). For each comparison, we then rank-ordered the 500 probe sets with the smallest p values, by fold change. […] The final 35 signature genes contain 15 PN, 15 Mes, and 5 Prolif markers. […] For statistical comparisons of data presented in FIG. 4 F-I and FIG. 7, log-transformed data was analyzed via t tests corrected for multiple group comparisons. […]"}
{"molecule": "BDNF: the neurotrophic factor BDNF (protein, UniProt P23560 19-247, looked up) Neurotrophic factor BDNF …: APMKEANIRGQGGLAYPGVRTHGTLESVNGPKAGSRGLTSLADTFEHVIEELLDEDQKVRPNEENNKDADLYTSRVMLSSQVPLEPPLLFLLEEYKNYLDAANMSMRVRRHSDPARRGELSVCDSISEWVTAADKKTAVDMSGGTVTVLEKVPVSKGQLKQYFYETKCNPMGYTKEGCRGIDKRHWNSQCRTTQSYVRALTMDSKKRIGWRFIRIDTSCVCTLTIKRGR", "values": [{"measurement": "shift of expression signature subclass", "value": "shifted signature subclass from the PN to the Mes class"}]}
